For 94 variants, protein stability index results are on record in the supplement of paper PMC10567573.

First the molecules themselves.
B1: DFFB (parent)
chain: TLVEAIKEQDGREVDWEYFYGLLF
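Note: lentivirally expressed fusions sorted by FACS into six bins by GFP to DsRed ratio, PSI derived from sequencing read proportions per bin multiplied by bin number.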

The data set covers variants of B1. Nature of the data set: protein stability index of a GFP-peptide fusion (GPS, HEK-293T) (PSI 1-6); higher = more stable. The following applies: c terminus: a fixed tail appended.
On to TLVEAIKDQDGREVDWEYFYGLLF [E8D], for which the protein stability index was found to be 2.08.
Take TLVEAIKVQDGREVDWEYFYGLLF [E8V]: the protein stability index amounted to 1.66.
With TLVEAIKHQDGREVDWEYFYGLLF [E8H], the protein stability index was 2.47.
With TLVEAIKIQDGREVDWEYFYGLLF [E8I], the protein stability index was determined as 1.3.
In the case of TLVEAIKYQDGREVDWEYFYGLLF [E8Y], the protein stability index worked out at 2.48.
As to TLVEAIKGQDGREVDWEYFYGLLF [E8G], the protein stability index was found to be 2.37.
With TLVEAIKNQDGREVDWEYFYGLLF [E8N], the protein stability index came out at 2.53.
To TLVEAIKLQDGREVDWEYFYGLLF [E8L] belongs 2.82.
As to TLVEAIKRQDGREVDWEYFYGLLF [E8R], the protein stability index came to 2.67.
In the case of TLVEAIKAQDGREVDWEYFYGLLF [E8A], the protein stability index amounted to 1.88.
With TLVEAIKQQDGREVDWEYFYGLLF [E8Q], the protein stability index came to 1.43.
Take TLVEAIKPQDGREVDWEYFYGLLF [E8P]: the protein stability index was 2.38.
TLVEAIKMQDGREVDWEYFYGLLF [E8M]: the protein stability index came to 1.62.
In the case of TLVEAIKFQDGREVDWEYFYGLLF [E8F] it was 1.1; in that of TLVEAIKSQDGREVDWEYFYGLLF [E8S], 1.72; in that of TLVEAIKKQDGREVDWEYFYGLLF [E8K], 1.83.
TLVENIKEQDGREVDWEYFYGLLF [A5N]: the protein stability index worked out at 2.11.
For the variant TLVEVIKEQDGREVDWEYFYGLLF [A5V], the protein stability index turned out to be 1.48.
With TLVETIKEQDGREVDWEYFYGLLF [A5T], the protein stability index is 2.88.
On to TLVEMIKEQDGREVDWEYFYGLLF [A5M], for which the protein stability index was 2.35.
For the variant TLVEKIKEQDGREVDWEYFYGLLF [A5K], the protein stability index was 1.89.
Take TLVEWIKEQDGREVDWEYFYGLLF [A5W]: the protein stability index came out at 2.84.
In the case of TLVEPIKEQDGREVDWEYFYGLLF [A5P] it was 2.74; in that of TLVESIKEQDGREVDWEYFYGLLF [A5S], 2.15; in that of TLVERIKEQDGREVDWEYFYGLLF [A5R], 2.29.
For TLVEQIKEQDGREVDWEYFYGLLF [A5Q], the protein stability index is 2.4.
As to TLVEYIKEQDGREVDWEYFYGLLF [A5Y], the protein stability index was 2.73.
On to TLVEAIKEHDGREVDWEYFYGLLF [Q9H], for which the protein stability index is 2.33.
For TLVEAIKEMDGREVDWEYFYGLLF [Q9M], the protein stability index is 1.74.
As for TLVEAIKELDGREVDWEYFYGLLF [Q9L], the protein stability index turned out to be 3.05.
To TLVEAIKESDGREVDWEYFYGLLF [Q9S] belongs 1.66; to TLVEAIKEADGREVDWEYFYGLLF [Q9A], 1.37; to TLVEAIKEVDGREVDWEYFYGLLF [Q9V], 1.24.
In the case of TLVEAIKERDGREVDWEYFYGLLF [Q9R] it was 2.27; in that of TLVEAIKEGDGREVDWEYFYGLLF [Q9G], 1.26; in that of TLVEAIKEKDGREVDWEYFYGLLF [Q9K], 1.55.
Turning to TLVEAIKEDDGREVDWEYFYGLLF [Q9D], the protein stability index worked out at 1.97.
As for TLVEAIKETDGREVDWEYFYGLLF [Q9T], the protein stability index was determined as 2.
On to TLVEAIKEIDGREVDWEYFYGLLF [Q9I], for which the protein stability index came to 1.87.
TLVEAIKEYDGREVDWEYFYGLLF [Q9Y]: the protein stability index turned out to be 1.08.
For the variant TLVEAIKEWDGREVDWEYFYGLLF [Q9W], the protein stability index came to 2.59.
In the case of TLVEAIKEEDGREVDWEYFYGLLF [Q9E] it was 2.26.
In the case of TLVEAIKEFDGREVDWEYFYGLLF [Q9F], the protein stability index was 2.73.
Take TLVEAIKEPDGREVDWEYFYGLLF [Q9P]: the protein stability index was determined as 3.
TLVEAIKENDGREVDWEYFYGLLF [Q9N]: the protein stability index was 1.57.
In the case of TLVEAIKEQFGREVDWEYFYGLLF [D10F] it was 1.91; in that of TLVEAIKEQHGREVDWEYFYGLLF [D10H], 1.99; in that of TLVEAIKEQKGREVDWEYFYGLLF [D10K], 2.12.
Turning to TLVEAIKEQQGREVDWEYFYGLLF [D10Q], the protein stability index amounted to 1.71.
In the case of TLVEAIKEQAGREVDWEYFYGLLF [D10A] it was 2.01; in that of TLVEAIKEQLGREVDWEYFYGLLF [D10L], 1.91; in that of TLVEAIKEQGGREVDWEYFYGLLF [D10G], 2.66.
As for TLVEAIKEQSGREVDWEYFYGLLF [D10S], the protein stability index is 2.37.
In the case of TLVEAIKEQVGREVDWEYFYGLLF [D10V] it was 1.73.
In the case of TLVEAIKEQMGREVDWEYFYGLLF [D10M] it was 1.35; in that of TLVEAIKEQTGREVDWEYFYGLLF [D10T], 1.59.
To TLVEAIKEQRGREVDWEYFYGLLF [D10R] belongs 1.41; to TLVEAIKEQNGREVDWEYFYGLLF [D10N], 1.86; to TLVEAIKEQCGREVDWEYFYGLLF [D10C], 1.99.
For the variant TLVEAIKEQPGREVDWEYFYGLLF [D10P], the protein stability index was 2.32.
For the variant TLVEAPKEQDGREVDWEYFYGLLF [I6P], the protein stability index stood at 2.17.
As to TLVEAEKEQDGREVDWEYFYGLLF [I6E], the protein stability index is 2.58.
Consider TLVEAVKEQDGREVDWEYFYGLLF [I6V], for which the protein stability index amounted to 2.25.
Regarding TLVEANKEQDGREVDWEYFYGLLF [I6N], the protein stability index is 2.2.
In the case of TLVEAYKEQDGREVDWEYFYGLLF [I6Y] it was 1.81.
With TLVEAKKEQDGREVDWEYFYGLLF [I6K], the protein stability index is 2.2.
Regarding TLVEARKEQDGREVDWEYFYGLLF [I6R], the protein stability index was 2.16.
In the case of TLVEAFKEQDGREVDWEYFYGLLF [I6F], the protein stability index is 2.38.
As for TLVEACKEQDGREVDWEYFYGLLF [I6C], the protein stability index was found to be 2.24.
Consider TLVEAWKEQDGREVDWEYFYGLLF [I6W], for which the protein stability index stood at 1.38.
As to TLVEASKEQDGREVDWEYFYGLLF [I6S], the protein stability index worked out at 1.89.
For the variant TLVEATKEQDGREVDWEYFYGLLF [I6T], the protein stability index was 2.01.
For the variant TLVEAHKEQDGREVDWEYFYGLLF [I6H], the protein stability index turned out to be 2.58.
For the variant TLVEAQKEQDGREVDWEYFYGLLF [I6Q], the protein stability index turned out to be 2.32.
In the case of TLVEAAKEQDGREVDWEYFYGLLF [I6A] it was 2.59; in that of TLVEAMKEQDGREVDWEYFYGLLF [I6M], 1.94.
With TLVEAIIEQDGREVDWEYFYGLLF [K7I], the protein stability index was 2.28.
TLVEAIREQDGREVDWEYFYGLLF [K7R]: the protein stability index amounted to 1.03.
Regarding TLVEAIEEQDGREVDWEYFYGLLF [K7E], the protein stability index worked out at 2.34.
With TLVEAITEQDGREVDWEYFYGLLF [K7T], the protein stability index is 2.19.
Consider TLVEAINEQDGREVDWEYFYGLLF [K7N], for which the protein stability index was 1.51.
In the case of TLVEAIHEQDGREVDWEYFYGLLF [K7H] it was 1.9; in that of TLVEAIVEQDGREVDWEYFYGLLF [K7V], 1.64.
With TLVEAIPEQDGREVDWEYFYGLLF [K7P], the protein stability index came out at 2.3.
In the case of TLVEAIWEQDGREVDWEYFYGLLF [K7W] it was 2.15; in that of TLVEAIDEQDGREVDWEYFYGLLF [K7D], 1.58.
With TLVEAIFEQDGREVDWEYFYGLLF [K7F], the protein stability index came to 2.99.
In the case of TLVEAIMEQDGREVDWEYFYGLLF [K7M], the protein stability index was 1.72.
Consider TLVEAISEQDGREVDWEYFYGLLF [K7S], for which the protein stability index was found to be 1.31.
As for TLVEAIYEQDGREVDWEYFYGLLF [K7Y], the protein stability index turned out to be 3.52.
Regarding TLVEAIAEQDGREVDWEYFYGLLF [K7A], the protein stability index was found to be 2.31.
Take TLVEAIGEQDGREVDWEYFYGLLF [K7G]: the protein stability index is 1.79.
For TLVEAIQEQDGREVDWEYFYGLLF [K7Q], the protein stability index is 2.16.
To TLVEAICEQDGREVDWEYFYGLLF [K7C] belongs 1.98.
